Substitutions are numbered along the chain they refer to.
T1: human histidine-rich glycoprotein (HRG), purified from human plasma (human, UniProt P04196 19-525)
T1 construct: also called human purified HRG; human purified HRG protein
T1 sequence: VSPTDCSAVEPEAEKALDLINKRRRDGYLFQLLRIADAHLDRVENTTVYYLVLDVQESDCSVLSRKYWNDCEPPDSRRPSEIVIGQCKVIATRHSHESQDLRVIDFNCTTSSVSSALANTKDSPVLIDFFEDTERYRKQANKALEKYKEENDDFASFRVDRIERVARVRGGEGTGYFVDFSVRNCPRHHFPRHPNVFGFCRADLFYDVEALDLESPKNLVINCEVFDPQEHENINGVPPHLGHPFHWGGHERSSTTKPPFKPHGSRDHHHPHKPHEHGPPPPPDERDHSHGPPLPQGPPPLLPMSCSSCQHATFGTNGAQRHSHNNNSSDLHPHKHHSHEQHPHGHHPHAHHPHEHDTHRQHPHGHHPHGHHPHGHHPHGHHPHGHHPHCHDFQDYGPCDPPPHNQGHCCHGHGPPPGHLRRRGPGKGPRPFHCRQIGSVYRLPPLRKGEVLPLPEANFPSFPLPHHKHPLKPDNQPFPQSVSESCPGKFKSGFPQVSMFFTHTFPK

B1: anti-HRG monoclonal antibody 3-4E (antibody, V domains shown)
VH: QVQLQQSGAELMKPGASVKISCKATGYTFSTFWMEWVKQRPGHGLEWIGEILPGSGNANYNEKFKGKATFTADTSSNTAYMQLSSLTSEDSAVYYCAIHYYGYGFAYWGQGTLVTVSA
VL: DNVLTQSPAIMSASLGERVTMTCTASSSVSSSYLHWYQQKPGSSPKLWIYTTSNLASGVPVRFSGSGSGTSYSLTISSMEAEDAATYYCHQYHRSPWTFGGGTKLEIK
notes: Mouse (BALB/c) hybridoma monoclonal, Protein A purified; biotin-labeled when used as detection antibody
B2: anti-HRG monoclonal antibody 50-6C-2A (antibody, V domains shown)
VH: EVQLQESGPGLVKPSQSLSLTCTVTGYSITSDYAWNWIRQFPGNKLEWMGYISYSGSTNYNPSLKSRISITRDTSKNQFFLQLNSVTTEDTATYYCASASYRYAWFAYWGQGTLVTVST
VL: DIQMTQTTSSLSASLGDRVTISCRASQDISNYLNWYQQKPDGTVKLLIYYTSRLHSGVPSRFSGSGSGTDYSLTISNLEQEDIGTYFCQQGNTLPTFGGGTKLEIK
notes: Mouse hybridoma monoclonal
B3: anti-HRG monoclonal antibody 67-8A-5F (antibody, V domains shown)
VH: B2 VH with N59S, T119A
VL: B2 VL with H55L, G84A
notes: Mouse hybridoma monoclonal
B4: anti-HRG monoclonal antibody 6-12A-10B-9G (antibody, V domains shown)
VH: B2 VH with K65R, N84I, A97G, T119A
VL: B2 VL with M4V, G84A
notes: Mouse hybridoma monoclonal; biotin-labeled as detection antibody and for bead immobilisation
B5: anti-HRG monoclonal antibody 65-3A (antibody, V domains shown)
VH: QVILKESGPGILQPSQTLSLTCSFSGFSLSTSGVGVSWIRQPSGKGLEWLAHIYWDDDKHYNPSLKSRLTISKDTSRNQVFLRITSVDTADTATYYCALGTVGGPWFPYWGQGTLVTVSA
VL: DVQMNQSHKFMSTSVGDRVSITCKASQDVSTAVAWYQQKPGQSPKILIYWASIRHTGVPDRFTGSGSGTDYTLTISSVQAEDLTLYYCQQHYSTPWTFGGGTKLEIK
notes: Mouse hybridoma monoclonal

Key:
[1] = target: T1, human histidine-rich glycoprotein …; test: sandwich ELISA, HRG captured by solid phase 88-2E
Description: (§1) The capture antibody solution was dispensed at 25 μL per well into 384-well Maxisorp plates (NUNC), and the plates were incubated at room temperature for 3 hours. The plates were washed twice with 120 μL of washing solution per well (0.05% Tween 20-containing PBS). A blocking solution (1% BSA-containing PBS) was dispensed at 30 μL per well, and the plates were incubated at room temperature for 3 hours. The blocking solution was removed followed by dispensing the standard substance for evaluation at 20 μL per well (n=2), and the plates were incubated at room temperature for 3 hours. After washing the plates four times with the washing solution as described above, the solution of each detector antibody was dispensed at 10 μL per well, followed by dispensing a horseradish peroxidase-streptavidin solution (0.05 μg/mL) at 10 μL per well, and the plates were incubated at room temperature for 1 hour. After washing the plates four times with the washing solution as described above, a chromogenic substrate solution (TMB (3,3′,5,5′-tetramethylbenzidine)) was dispensed at 20 μL per well followed by incubating the plates at room temperature for 10 minutes, then a reaction stop solution 0.5 M H₂SO₄ was added at 20 μL/well, and the absorbance at 450 nm was measured.
(§2) The results regarding the evaluation of combinations chosen from 21 types of anti-HRG monoclonal antibodies are shown in Table 1. In Table 1, the absorbance at a wavelength of 450 nm of each combination was determined as follows: less than 1.0 OD: −, 1.0 OD or more and less than 2.0 OD: +, 2.0 OD or more and less than 3.0 OD: ++, and 3.0 OD or more: +++. The combinations of antibodies which could construct a sandwich ELISA system having enough level of absorbance change were 86 sets evaluated as ++ or +++ in Table 1.

[2] = target: T1, human histidine-rich glycoprotein …; test: sandwich ELISA, HRG captured by solid phase 67-8A-5F
Description: as §1, §2

[3] = target: T1, human histidine-rich glycoprotein …; test: sandwich ELISA, HRG captured by solid phase 31-1H
Description: as §1, §2

[4] = target: T1, human histidine-rich glycoprotein …; test: sandwich ELISA, HRG captured by solid phase 32-4C
Description: as §1, §2

[5] = target: T1, human histidine-rich glycoprotein …; test: sandwich ELISA, HRG captured by solid phase 6-12A-10B-9G
Description: as §1, §2

[6] = target: T1, human histidine-rich glycoprotein …; test: sandwich ELISA, HRG captured by solid phase 19-1C
Description: as §1, §2

[7] = target: T1, human histidine-rich glycoprotein …; test: sandwich ELISA, HRG captured by solid phase 94-7A-3C-3D
Description: as §1, §2

[8] = target: T1, human histidine-rich glycoprotein …; test: sandwich ELISA, HRG captured by solid phase 50-6C-2A
Description: as §1, §2

[9] = target: T1, human histidine-rich glycoprotein …; test: sandwich ELISA, HRG captured by solid phase 13-2G
Description: as §1, §2

[10] = target: T1, human histidine-rich glycoprotein …; test: sandwich ELISA, HRG captured by solid phase 69-1A
Description: as §1, §2

[11] = target: T1, human histidine-rich glycoprotein …; test: sandwich ELISA, HRG captured by solid phase 3-4E
Description: as §1, §2

[12] = target: T1, human histidine-rich glycoprotein …; test: sandwich ELISA, HRG captured by solid phase 35-3G-10C
Description: as §1, §2

[13] = target: T1, human histidine-rich glycoprotein …; test: sandwich ELISA, HRG captured by solid phase 65-3A
Description: as §1, §2

[14] = target: T1, human histidine-rich glycoprotein …; test: sandwich ELISA, HRG captured by solid phase 81-2C
Description: as §1, §2

[15] = target: T1, human histidine-rich glycoprotein …; test: sandwich ELISA, HRG captured by solid phase 40-10G
Description: as §1, §2

[16] = target: T1, human histidine-rich glycoprotein …; test: sandwich ELISA, HRG captured by solid phase 42-10D
Description: as §1, §2

[17] = target: T1, human histidine-rich glycoprotein …; test: sandwich ELISA, HRG captured by solid phase 93-4C
Description: as §1, §2

[18] = target: T1, human histidine-rich glycoprotein …; test: sandwich ELISA, HRG captured by solid phase 14-6F
Description: as §1, §2

[19] = target: T1, human histidine-rich glycoprotein …; test: sandwich ELISA, HRG captured by solid phase 75-2D
Description: as §1, §2

[20] = target: T1, human histidine-rich glycoprotein …; test: sandwich ELISA, HRG captured by solid phase 9-1F
Description: as §1, §2

[21] = target: T1, human histidine-rich glycoprotein …; test: sandwich ELISA, HRG captured by solid phase 58-5C
Description: as §1, §2

Binder | absorbance at 450 nm [1] [OD] | absorbance at 450 nm [3] [OD] | absorbance at 450 nm [4] [OD] | absorbance at 450 nm [6] [OD] | absorbance at 450 nm [10] [OD] | absorbance at 450 nm [12] [OD] | absorbance at 450 nm [14] [OD] | absorbance at 450 nm (OD450) [15] [od] | absorbance at 450 nm [16] [OD] | absorbance at 450 nm [2] [OD] | absorbance at 450 nm (OD450) [17] [od] | absorbance at 450 nm (OD450) [18] [od] | absorbance at 450 nm [5] [OD] | absorbance at 450 nm (OD450) [7] [od] | absorbance at 450 nm [8] [OD] | absorbance at 450 nm [9] [OD] | absorbance at 450 nm (OD450) [19] [od] | absorbance at 450 nm [20] [OD] | absorbance at 450 nm (OD450) [11] [od] | absorbance at 450 nm (OD450) [21] [od] | other results
B1 | < 1 | < 1 | < 1 | < 1 | < 1 | < 1 | < 1 | – | – | – | – | – | – | – | – | – | – | – | – | – | absorbance at 450 nm (OD450) [2]: 2 to 3 od; absorbance at 450 nm (OD450) [5]: ≥ 3 od; absorbance at 450 nm [7]: < 1 OD; absorbance at 450 nm (OD450) [8]: ≥ 3 od; absorbance at 450 nm (OD450) [9]: ≥ 3 od; absorbance at 450 nm [11]: < 1 OD; absorbance at 450 nm [13]: < 1 OD
B2 | < 1 | < 1 | < 1 | < 1 | < 1 | < 1 | < 1 | 1 to 2 | < 1 | < 1 | 2 to 3 | 2 to 3 | < 1 | 1 to 2 | < 1 | < 1 | ≥ 3 | < 1 | ≥ 3 | 1 to 2 | absorbance at 450 nm (OD450) [13]: 1 to 2 od
B3 | < 1 | < 1 | < 1 | < 1 | < 1 | < 1 | < 1 | 1 to 2 | < 1 | < 1 | 2 to 3 | 2 to 3 | < 1 | 1 to 2 | < 1 | < 1 | ≥ 3 | < 1 | ≥ 3 | 2 to 3 | absorbance at 450 nm (OD450) [13]: 1 to 2 od
B4 | – | < 1 | < 1 | < 1 | < 1 | < 1 | < 1 | 2 to 3 | < 1 | < 1 | ≥ 3 | ≥ 3 | < 1 | 1 to 2 | < 1 | < 1 | ≥ 3 | < 1 | ≥ 3 | 2 to 3 | absorbance at 450 nm (OD450) [13]: 2 to 3 od
B5 | – | < 1 | < 1 | < 1 | < 1 | < 1 | < 1 | 2 to 3 | < 1 | – | 2 to 3 | 1 to 2 | – | – | – | – | 2 to 3 | < 1 | – | 2 to 3 | absorbance at 450 nm (OD450) [2]: 2 to 3 od; absorbance at 450 nm (OD450) [5]: ≥ 3 od; absorbance at 450 nm [7]: < 1 OD; absorbance at 450 nm (OD450) [8]: 2 to 3 od; absorbance at 450 nm (OD450) [9]: 2 to 3 od; absorbance at 450 nm [11]: < 1 OD; absorbance at 450 nm [13]: < 1 OD

Reference: patent US20250258178A1 (SHIONOGI, published 2025)
